Results reported in patent US20100062984A1, “FGF-23 POLYPEPTIDES” (priority 2007, published 2010).
Several values for one entry are separate records, joined by “and”; a condition that tells them apart may be missing. Identical values can stand only once.

Experiments:
normal rats = experiment: Acute intravenous infusion of equimolar FGF-23 polypeptides in anesthetized rats, renal clearance; format: in vivo, rat; conditions: for FENa (fractional excretion of sodium), control clearance / FEPi (fractional excretion of phosphate), control clearance: C = control clearance before infusion; for FENa (fractional excretion of sodium), control clearance / FEPi (fractional excretion of phosphate), control clearance / FENa (fractional excretion of sodium), experimental clearance / FEPi (fractional excretion of phosphate), experimental clearance: mean ± SE; for FENa (fractional excretion of sodium), experimental clearance / FEPi (fractional excretion of phosphate), experimental clearance: E = experimental clearance, i.v. infusion 1.24 nmol/kg/hour
Experimental: Male Sprague Dawley rats weighing 300 g were purchased from Harlan Sprague Dawley Inc. (Madison Wis.). They were fed a standard rodent diet containing 0.7% phosphate and 0.5% calcium. All animals were fasted overnight prior to the experiment. On the day of the experiment, rats were anesthetized with an intraperitoneal injection of 100-150 mg/kg body weight of 5-sec-butyl-ethyl-2-thiobarbituricacid (Inactin, Byk Gulden Konstanz, Hamburg, Germany). The rats were placed on a heated table to maintain body temperature between 36-38° C. After a tracheostomy, a PE 50 catheter was placed in the left carotid artery to monitor mean arterial blood pressure (MAP) and to collect blood samples. Catheters were also placed in the left and right jugular veins for infusions. A solution containing 2% inulin in 0.9% NaCl plus 4.5% BSA was infused at a rate of 1.2 mL/hour in one catheter, and 0.9% NaCl was infused in the other catheter at a rate of 1.2 mL/hour. A catheter (PE 90) was placed in the bladder for urine collection. Acute infusion studies were performed using the following seven different groups of animals.
Group 1: Vehicle Time control (n=8). After a ninety-minute recovery period, one […] urine sample was taken (C1) and a blood sample was taken. One hour later a second 60-minute clearance was taken (C2).
Group 2: Effect of acute infusion of full length FGF-23 polypeptide (1.24 nmol/kg/hour, n=8). This protocol is identical to group 1 except that after the control collections, full-length recombinant FGF-23 polypeptide was added to the 0.9% saline infusion to deliver 1.24 nmol/kg/hour of full length FGF-23 polypeptide. After one hour of infusion, a sixty-minute clearance was taken.
Group 3: Effect of acute infusion of FGF-23(176-251) polypeptide (1.24 nmol/kg/hour, n=8). This protocol is identical to group 2 except for the sequence of the infused polypeptide.
Group 4: Effect of acute infusion of FGF-23(180-251) polypeptide (1.24 nmol/kg/hour, n=8). This protocol is identical to group 2 except for the sequence of the infused polypeptide.
Group 5: Effect of infusion of FGF-23(184-251) polypeptide (1.24 nmol/kg/hour, n=8). This protocol is identical to group 2 except for the sequence of the infused polypeptide.
Group 6: Effect of infusion of FGF-23(206-251) polypeptide (1.24 nmol/kg/hour, n=6). This protocol is identical to group 2 except for the sequence of the infused polypeptide.
Group 7: Effect of infusion of FGF-23(180-205) polypeptide (1.24 nmol/kg/hour, n=6). This protocol is identical to group 2 except for the sequence of the infused polypeptide.
(§1) Plasma and urine phosphate concentrations were determined using the method of Chen (Chen et al., Anal Chem., 28:1756-1758 (1956)). Inulin concentrations in plasma and urine were determined using the anthrone method (Führ et al., Klin. Wochenschr., 33.:729-730 (1955)). Sodium concentrations in urine were determined by ion selective electrode (EasyLyte Plus Analyzer, Medica Corp., Bedford, Mass.). Calcium concentrations were measured using atomic absorption spectrometry (Kumar et al., Biochemistry, 15:2420-2423 (1976)) with a Perkin Elmer Model 3300 Atomic Absorption Spectrometer (Perkin Elmer, Boston, Mass.). Serum 1α,25(OH)2D concentrations were measured using an RIA kit (Diasorin, Stillwater, Minn.).
Statistically significant differences between groups were evaluated by Student's t-test for comparison between two groups or by one-way analysis of variance (ANOVA) followed by Tukey's test for multiple comparisons. All values were expressed as mean±SE. A p value less than 0.05 was considered to be statistically significant.

Fgf-23−/− mice = experiment: Intraperitoneal injection into Fgf-23−/− mice, serum phosphate; format: in vivo, mouse
Experimental: To further examine the in vivo phosphaturic activity of the smallest FGF-23 fragment, 0.2 nmoles of FGF-23(180-205) polypeptide were injected twice intraperitoneally into Fgf-23^−/− mice. FGF-23 R176Q polypeptide was similarly injected into the mutant mice as a positive control, and saline was injected as a vehicle control. Fgf-23^−/− animals were generated as reported elsewhere (Sitara et al., Matrix Biol., 23:421-432 (2004)). To determine the in vivo effects of the C-terminal fragment FGF23(180-205) in the absence of endogenous FGF-23 activity, equimolar amounts (0.2 nmoles) of FGF-23 R176Q polypeptide, FGF-23(180-205) polypeptide, and vehicle (saline) were injected twice intraperitoneally into Fgf-23^−/− mice at 0 and 8 hours. Blood was obtained by tail bleeding or cheek pouch puncture of 3- to 6-week-old Fgf-23^−/− animals, 8 hours after the second injection (at 16 hours). Serum levels of phosphate were determined in pre- and post-injection mice using the Stanbio LiquiUV kit (Stanbio Laboratory, Boerne, Tex.).

rats = experiment: Chronic (72 hour) intraperitoneal administration in rats, serum phosphate and 1α,25(OH)2D; format: in vivo, rat; conditions: chronic (72 hour) administration, i.p. every 12 hours for three days
Experimental: as §1
Chronic animal studies were performed to determine the effect of chronic (72 hour) administration of FGF-23(176-251) polypeptide (1.24 nmol/kg/hour, n=5) or vehicle (PBS+0.1% BSA, n=6) on serum phosphate and 1α, 25 (OH)2 D concentrations. Rats received an intraperitoneal injection of FGF-23(176-251) polypeptide in 0.5 mL of normal saline every 12 hours for three days. At the end of three days, the animals were anesthetized and a terminal blood sample was taken.

NaPi IIa-V5 = experiment: Surface expression of V5-tagged Na+-Pi IIa transporter in OK cells (immunofluorescence); format: cell-based, opossum; conditions: OK cells expressing V5-tagged transporter, three hour treatment
Experimental: To assess the mechanism by which these agents altered phosphate transport, the surface expression of an epitope tagged sodium phosphate transporter, NaPi IIa-V5, was examined. An OK cell line stably expressing a VS-tagged Na+-Pi IIa transporter was generated as described elsewhere (Berndt et al., Pflugers Arch., 451:579-587 (2006)). The presence of the transporter on the cell surface of OK-N+-Pi-IIa-V5 cells was carried out using immunohistochemical methods and reagents described elsewhere (Berndt et al., Pflugers Arch., 451:579-587 (2006)).

[1] = tested on: opossum proximal tubular epithelial cells (OK); experiment: OK cell Pi uptake assay; format: cell-based
Experimental: The OK cell Pi uptake assay was performed as described by Bowe et al. (Biochem Biophys Res Commun., 284:977-981 (2001)).

[2] = acute i.v. infusion of equimolar doses, rats
[3] = listed as full length recombinant FGF-23 polypeptide

Row | Molecule | FENa (fractional excretion of sodium), control clearance (normal rats) | FEPi (fractional excretion of phosphate), control clearance (normal rats) [%] | FENa (fractional excretion of sodium), experimental clearance (normal rats) | FEPi (fractional excretion of phosphate), experimental clearance (normal rats) | Effect on phosphate excretion (in words) (normal rats; [2]) | Amount of NaPiIIa-V5 detected on the cell surface (in words) (NaPi IIa-V5) | Radiolabeled phosphorus uptake (in words) [1] | also measured
1 | FGF-23(206-251): synthetic FGF-23 fragment, residues 206-251, SEQ ID NO: 5 (CSQELPSAEDNSPMASDPLGVVRGGRVNTHAGGTGPEGCRPFAKFI; listed as Homo sapiens) | 0.19 ± 0.04% | 22 ± 5 | 0.22 ± 0.05^ % | 29 ± 2^ % | did not increase |  |  | Effect on sodium excretion (in words) (normal rats; [2]): did not increase
2 | FGF-23(180-205): synthetic FGF-23 fragment, residues 180-205, SAEDDSERDPLNVLKPRARMTPAPAS, SEQ ID NO: 6 (listed as Homo sapiens) | 0.4±0.1% and 0.39 ± 0.11% | 10±2 | 1.0±0.2% and 1.01 ± 0.21 % | 20±2% | increases phosphate excretion significantly |  |  | Serum phosphate level post-injection (Fgf-23−/− mice; 0.2 nmoles i.p. at 0 and 8 hours, blood at 16 hours, p<0.01 vs pre-injection, in mg/dL (unit assumed)): 10.95±0.62; Serum phosphate level pre-injection (Fgf-23−/− mice; before injection, in mg/dL (unit assumed)): 14.64±0.51
3 | FGF-23(176-251): synthetic FGF-23 fragment, residues 176-251, SEQ ID NO: 2 (peptide, listed as Homo sapiens) RHTRSAEDDSERDPLNVLKPRARMTPAPASCSQELPSAEDNSPMASDPLGVVRGGRVNTHAGGTGPEGCRPFAKFI | 0.90±0.15% and 0.87 ± 0.15% | 15±2 | 1.21±0.17% | 33±2% |  |  |  | Serum phosphate concentration (rats; vehicle 2.19±0.11 mM, p=0.062): 1.85 ± 0.12 mM; Serum 1α,25(OH)2D concentration (rats; vehicle 114±7 pg/mL, p<0.05): 76 ± 11 pg/mL; Effect on serum Pi concentrations (in words) (Fgf-23−/− mice; given intraperitoneally): reduced
4 | FGF-23(25-251): full-length recombinant human FGF-23(25-251) polypeptide expressed in E. coli, SEQ ID NO: 1 (protein, listed as Homo sapiens) YPNASPLLGSSWGGLIHLYTATARNSYHLQIHKNGHVDGAPHQTIYSALMIRSEDAGFVVITGVMSRRYLCMDFRGNIFGSHYFDPENCRFQHQTLENGYDVYHSPQYHFLVSLGRAKRAFLPGMNPPPYSQFLSRRNEIPLIHFNTPIPRRHTRSAEDDSERDPLNVLKPRARMTPAPASCSQELPSAEDNSPMASDPLGVVRGGRVNTHAGGTGPEGCRPFAKFI |  |  |  |  |  | significant decreases | directly inhibited | FENa (fractional excretion of sodium), control clearance (normal rats; listed as FGF-23 Full Length): 0.26 ± 0.14%; FEPi (fractional excretion of phosphate), control clearance (normal rats; listed as FGF-23 Full Length): 14 ± 3%; FENa (fractional excretion of sodium), control clearance (normal rats; [3]): 0.3±0.1%; FEPi (fractional excretion of phosphate), control clearance (normal rats; [3]): 14±3%; FENa (fractional excretion of sodium), experimental clearance (normal rats; listed as FGF-23 Full Length): 0.76 ± 0.15 %; FEPi (fractional excretion of phosphate), experimental clearance (normal rats; listed as FGF-23 Full Length): 32 ± 5 %; FENa (fractional excretion of sodium), experimental clearance (normal rats; [3]): 0.7±0.2%; FEPi (fractional excretion of phosphate), experimental clearance (normal rats; [3]): 32±5%; FE Ca after infusion (normal rats; acute i.v. infusion 1.24 nmol/kg/hour): 10.0±2.3%; FE Ca before infusion (normal rats; control period before infusion): 4.1±1.2%
5 | FGF-23(180-251): synthetic FGF-23 fragment, residues 180-251, SEQ ID NO: 3 (peptide, listed as Homo sapiens) SAEDDSERDPLNVLKPRARMTPAPASCSQELPSAEDNSPMASDPLGVVRGGRVNTHAGGTGPEGCRPFAKFI | 0.20±0.07% and 0.17 ± 0.07% | 14±3 | 0.80±0.17% and 0.76 ± 0.17 % | 26±3% | increases phosphate excretion significantly | significant decreases | directly inhibited | 
6 | FGF-23(184-251): synthetic FGF-23 fragment, residues 184-251, SEQ ID NO: 4 (peptide, listed as Homo sapiens) DSERDPLNVLKPRARMTPAPASCSQELPSAEDNSPMASDPLGVVRGGRVNTHAGGTGPEGCRPFAKFI | 0.3±0.1% and 0.27 ± 0.09% | 16±3 | 0.6±0.16% and 0.63 ± 0.16 % | 28±3% | increases phosphate excretion significantly |  |  | 
